Tests used:
GFP-TRB2 (Arabidopsis) = GFP-TRB2 (Arabidopsis) (UniProt Q9FJW5); assay: FRET or BRET; FRET-FLIM (TCSPC); GFP fusion as donor, RFP fusion as acceptor, co-expressed in plant cells; donor alone as control; 10 images a series
GFP-TRB1 (Arabidopsis) = GFP-TRB1 (Arabidopsis) (UniProt Q8VWK4); assay: as above
Sequence of UniProt Q8VWK4 (Q8VWK4 whole entry): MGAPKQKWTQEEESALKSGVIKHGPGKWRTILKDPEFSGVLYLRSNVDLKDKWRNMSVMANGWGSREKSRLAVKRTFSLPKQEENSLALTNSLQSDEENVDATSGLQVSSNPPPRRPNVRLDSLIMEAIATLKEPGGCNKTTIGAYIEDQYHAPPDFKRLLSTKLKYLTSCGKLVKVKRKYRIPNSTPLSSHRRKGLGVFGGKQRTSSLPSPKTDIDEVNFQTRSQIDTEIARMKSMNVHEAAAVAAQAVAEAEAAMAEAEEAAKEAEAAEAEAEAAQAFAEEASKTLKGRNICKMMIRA

Sequence of UniProt Q9FJW5 (Q9FJW5 whole entry, the tested form may be a part): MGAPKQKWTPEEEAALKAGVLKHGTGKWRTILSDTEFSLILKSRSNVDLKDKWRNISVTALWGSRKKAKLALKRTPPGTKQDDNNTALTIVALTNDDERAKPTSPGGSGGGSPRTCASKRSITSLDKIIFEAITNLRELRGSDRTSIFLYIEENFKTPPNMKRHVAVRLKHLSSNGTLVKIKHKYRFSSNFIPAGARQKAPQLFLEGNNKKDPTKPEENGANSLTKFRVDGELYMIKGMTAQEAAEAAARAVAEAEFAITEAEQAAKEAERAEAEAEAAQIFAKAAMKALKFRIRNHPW

Row | fluorescence lifetime of the GFP donor in the presence of the RFP acceptor (GFP-TRB2 (Arabidopsis)) [ns] | fluorescence lifetime of the GFP donor in the presence of the RFP acceptor (GFP-TRB1 (Arabidopsis)) [ns] | Binder
1 | 2.21 | 2.31 | RFP-VAP27-1 (natural protein) MSNIDLIGMSNRDLIGMSNSELLTVEPLDLQFPFELKKQISCSLYLTNKTDNNVAFKVKTTNPKKYCVRPNTGVVLPRSTCEVLVTMQAQKEAPSDMQCKDKFLLQGVIASPGVTAKEVTPEMFSKEAGHRVEETKLRVTYVAPPRPPSPVHEGSEEGSSPRASVSDNGHGSEFSFERFIVDNKAGHQENTSEARALITKLTEEKQSAIQLNNRLQRELDQLRRESKKSQSGGIPFMYVLLVGLIGLILGYIMKRT
2 |  | 2.3 | RFP-ATG8e (natural protein) MNKGSIFKMDNDFEKRKAEAGRIREKYPDRIPVIVEKAEKSEVPNIDKKKYLVPSDLTVGQFVYVIRKRIKLSAEKAIFIFVDNVLPPTGELMSSVYEDKKDEDGFLYITYSGENTFG

Source: article PMC9513094
